From the RNAGym collection of RNA variant scans (doi:10.1021/acssynbio.7b00057)

B1: Pistol ribozyme (parent)
chain: GGGUCGUUGUUCCAUAAUCGCGUGGAUAUGGCACGCAAGUUUCUACCGGGCACCGUAAAUGUCCGACUGGAGCCGUUCGGGCGGCUAUAAACAGACCUCAGGCCCGAAGCGUGGCGGCACCUGCCGCCGGUGGUAAAAAAGAUCGGAAGAGCACACGUCU

Variants of: B1
Test: aptazyme ON/OFF ratio, guanine; higher = stronger switching; co-transcriptional cleavage with and without guanine

Row | Variant | aptazyme ON/OFF ratio
1 | GGGUCGGCGACGUAUAAUCGCGUGGAUAUGGCACGCAAGUUUCUACCGGGCACCGUAAAUGUCCGACUGGAGCCGUUCGGGCGGCUAUAAACAGACCUCAGGCCCGAAGCGUGGCGGCACCUGCCGCCGGUGGUAAAAAAGAUCGGAAGAGCACACGUCU [U7G U8C U10A U11C C12G C13U] | 1.16
2 | GGGUCGAGAAGGAAUAAUCGCGUGGAUAUGGCACGCAAGUUUCUACCGGGCACCGUAAAUGUCCGACUGGAGCCGUUCGGGCGGCUAUAAACAGACCUCAGGCCCGAAGCGUGGCGGCACCUGCCGCCGGUGGUAAAAAAGAUCGGAAGAGCACACGUCU [U7A U8G G9A U10A U11G C12G C13A] | 1.38
3 | GGGUCGGCGGAAAAUAAUCGCGUGGAUAUGGCACGCAAGUUUCUACCGGGCACCGUAAAUGUCCGACUGGAGCCGUUCGGGCGGCUAUAAACAGACCUCAGGCCCGAAGCGUGGCGGCACCUGCCGCCGGUGGUAAAAAAGAUCGGAAGAGCACACGUCU [U7G U8C U10G U11A C12A C13A] | 1.11
4 | GGGUCGAAACGGAAUAAUCGCGUGGAUAUGGCACGCAAGUUUCUACCGGGCACCGUAAAUGUCCGACUGGAGCCGUUCGGGCGGCUAUAAACAGACCUCAGGCCCGAAGCGUGGCGGCACCUGCCGCCGGUGGUAAAAAAGAUCGGAAGAGCACACGUCU [U7A U8A G9A U10C U11G C12G C13A] | 1.11
5 | GGGUCGACGCAGAAUAAUCGCGUGGAUAUGGCACGCAAGUUUCUACCGGGCACCGUAAAUGUCCGACUGGAGCCGUUCGGGCGGCUAUAAACAGACCUCAGGCCCGAAGCGUGGCGGCACCUGCCGCCGGUGGUAAAAAAGAUCGGAAGAGCACACGUCU [U7A U8C U10C U11A C12G C13A] | 1.17
6 | GGGUCGCACACGCAUAAUCGCGUGGAUAUGGCACGCAAGUUUCUACCGGGCACCGUAAAUGUCCGACUGGAGCCGUUCGGGCGGCUAUAAACAGACCUCAGGCCCGAAGCGUGGCGGCACCUGCCGCCGGUGGUAAAAAAGAUCGGAAGAGCACACGUCU [U7C U8A G9C U10A U11C C12G] | 1.2
7 | GGGUCGGGUAGGAAUAAUCGCGUGGAUAUGGCACGCAAGUUUCUACCGGGCACCGUAAAUGUCCGACUGGAGCCGUUCGGGCGGCUAUAAACAGACCUCAGGCCCGAAGCGUGGCGGCACCUGCCGCCGGUGGUAAAAAAGAUCGGAAGAGCACACGUCU [U7G U8G G9U U10A U11G C12G C13A] | 1.13
8 | GGGUCGAGCAAGCAUAAUCGCGUGGAUAUGGCACGCAAGUUUCUACCGGGCACCGUAAAUGUCCGACUGGAGCCGUUCGGGCGGCUAUAAACAGACCUCAGGCCCGAAGCGUGGCGGCACCUGCCGCCGGUGGUAAAAAAGAUCGGAAGAGCACACGUCU [U7A U8G G9C U10A U11A C12G] | 1.36
9 | GGGUCGAACGCGAAUAAUCGCGUGGAUAUGGCACGCAAGUUUCUACCGGGCACCGUAAAUGUCCGACUGGAGCCGUUCGGGCGGCUAUAAACAGACCUCAGGCCCGAAGCGUGGCGGCACCUGCCGCCGGUGGUAAAAAAGAUCGGAAGAGCACACGUCU [U7A U8A G9C U10G U11C C12G C13A] | 1.36
10 | GGGUCGCCCCCCGAUAAUCGCGUGGAUAUGGCACGCAAGUUUCUACCGGGCACCGUAAAUGUCCGACUGGAGCCGUUCGGGCGGCUAUAAACAGACCUCAGGCCCGAAGCGUGGCGGCACCUGCCGCCGGUGGUAAAAAAGAUCGGAAGAGCACACGUCU [U7C U8C G9C U10C U11C C13G] | 1.12
11 | GGGUCGAAGGCUCAUAAUCGCGUGGAUAUGGCACGCAAGUUUCUACCGGGCACCGUAAAUGUCCGACUGGAGCCGUUCGGGCGGCUAUAAACAGACCUCAGGCCCGAAGCGUGGCGGCACCUGCCGCCGGUGGUAAAAAAGAUCGGAAGAGCACACGUCU [U7A U8A U10G U11C C12U] | 1.1
12 | GGGUCGCCCGGUGAUAAUCGCGUGGAUAUGGCACGCAAGUUUCUACCGGGCACCGUAAAUGUCCGACUGGAGCCGUUCGGGCGGCUAUAAACAGACCUCAGGCCCGAAGCGUGGCGGCACCUGCCGCCGGUGGUAAAAAAGAUCGGAAGAGCACACGUCU [U7C U8C G9C U10G U11G C12U C13G] | 1.09
13 | GGGUCGUCCAACGAUAAUCGCGUGGAUAUGGCACGCAAGUUUCUACCGGGCACCGUAAAUGUCCGACUGGAGCCGUUCGGGCGGCUAUAAACAGACCUCAGGCCCGAAGCGUGGCGGCACCUGCCGCCGGUGGUAAAAAAGAUCGGAAGAGCACACGUCU [U8C G9C U10A U11A C13G] | 1.17
14 | GGGUCGGACCUUCAUAAUCGCGUGGAUAUGGCACGCAAGUUUCUACCGGGCACCGUAAAUGUCCGACUGGAGCCGUUCGGGCGGCUAUAAACAGACCUCAGGCCCGAAGCGUGGCGGCACCUGCCGCCGGUGGUAAAAAAGAUCGGAAGAGCACACGUCU [U7G U8A G9C U10C C12U] | 1.06
15 | GGGUCGACACUCCAUAAUCGCGUGGAUAUGGCACGCAAGUUUCUACCGGGCACCGUAAAUGUCCGACUGGAGCCGUUCGGGCGGCUAUAAACAGACCUCAGGCCCGAAGCGUGGCGGCACCUGCCGCCGGUGGUAAAAAAGAUCGGAAGAGCACACGUCU [U7A U8C G9A U10C] | 2.35
16 | GGGUCGUGCCUUUAUAAUCGCGUGGAUAUGGCACGCAAGUUUCUACCGGGCACCGUAAAUGUCCGACUGGAGCCGUUCGGGCGGCUAUAAACAGACCUCAGGCCCGAAGCGUGGCGGCACCUGCCGCCGGUGGUAAAAAAGAUCGGAAGAGCACACGUCU [U8G G9C U10C C12U C13U] | 1.04
17 | GGGUCGCUUUCAGAUAAUCGCGUGGAUAUGGCACGCAAGUUUCUACCGGGCACCGUAAAUGUCCGACUGGAGCCGUUCGGGCGGCUAUAAACAGACCUCAGGCCCGAAGCGUGGCGGCACCUGCCGCCGGUGGUAAAAAAGAUCGGAAGAGCACACGUCU [U7C G9U U11C C12A C13G] | 1.07
18 | GGGUCGGCUCGUUAUAAUCGCGUGGAUAUGGCACGCAAGUUUCUACCGGGCACCGUAAAUGUCCGACUGGAGCCGUUCGGGCGGCUAUAAACAGACCUCAGGCCCGAAGCGUGGCGGCACCUGCCGCCGGUGGUAAAAAAGAUCGGAAGAGCACACGUCU [U7G U8C G9U U10C U11G C12U C13U] | 1.28
